In patent US20220002344A1:
Square brackets hold non-standard residues; d marks the D form. Primed or numbered codes have the meaning given here. Ends that are not written are not given here. FITC′ = fluorescein isothiocyanate label; Cha = N[C@@H](CC1CCCCC1)C(=O)O

Experiments:
[1] = molecular target: E. coli sliding clamp (DnaN protein, β subunit of DNA polymerase III) (E. coli) (UniProt P0A988); assay: cell-based or functional assay
[2] = molecular target: E. coli 70S ribosome particle (E. coli); assay: ITC, 30 °C, peptide titrated into E. coli 70S ribosome
[3] = molecular target: E. coli 70S ribosome particle (E. coli); assay: ITC, 30 °C, E. coli ribosome

E. coli sliding clamp (DnaN protein, β subunit of DNA polymerase III) (E. coli), sequence (P0A988 whole entry): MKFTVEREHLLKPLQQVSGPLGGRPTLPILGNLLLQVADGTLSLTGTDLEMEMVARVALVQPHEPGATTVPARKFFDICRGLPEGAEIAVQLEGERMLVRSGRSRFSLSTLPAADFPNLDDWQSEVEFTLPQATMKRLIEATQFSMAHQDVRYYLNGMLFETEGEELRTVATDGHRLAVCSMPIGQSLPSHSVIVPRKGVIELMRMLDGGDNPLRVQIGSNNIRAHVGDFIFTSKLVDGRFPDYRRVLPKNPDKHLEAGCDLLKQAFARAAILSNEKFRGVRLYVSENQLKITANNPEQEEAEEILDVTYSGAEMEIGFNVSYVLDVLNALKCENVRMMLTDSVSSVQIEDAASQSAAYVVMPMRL

B1: CM1-92 (FITC-Onc112-P7), FITC-K-…rIYNrGPRQChaDLF-OH (peptide)
peptide: {FITC′}-KVDKPPYLPRPRPPR[dR]IYN[dR]GPRQ[Cha]DLF-OH
modifications: not fully specified
B1 gave an MIC (µM), E. coli ATCC 25922, Mueller-Hinton broth [1] of 16 µM.

B2: P188 (Py-P7Scr), …haGQLD-OH (peptide)
peptide: VDKGSYLPRPTPPRPIYNRNGPR[Cha]FQLD-OH
With B2 the -TΔS [2] was 5.5 kcal/mol, the Kd [2] was 0.0758 µM and the ΔG [2] was -9.89 kcal/mol. The ΔH [2] was -15.4 kcal/mol.

B3: CA3-124 (FITC-Onc112), FITC-…rIYNr-NH2 (peptide)
peptide: {FITC′}-VDKPPYLPRPRPPR[dR]IYN[dR]-NH2
modifications: not fully specified
B3 showed a Kd [3] of 7.7 µM, a ΔG [3] of -7.1 kcal/mol and a ΔH [3] of -22.6 kcal/mol.
